Experiment: yeast display, Sf9 membrane polyspecificity reagent, FACS + sequencing; frameworks hold sequencing errors
Method in brief: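 A synthetic nanobody library was expressed on Saccharomyces cerevisiae BJ5465 by galactose induction for 36–48 hours. The library was stained for 1 hour at 4 °C with 10% biotinylated, detergent-solubilized Sf9 membrane reagent and enriched with streptavidin microbeads before FACS. Low and high (top ~1%) gates were set on anti-HA fluorescence for expression and streptavidin fluorescence for reagent binding, and each polyreactivity label reflects the gate of origin.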

QVQLVESGGGLVQAGGSLRLSCAASGYTFRYNAMGWYRQAPGKERELVASITFSGGRTFYADSVKGRFTISRDNAKNTVYLQMNSLKPEDTAVYYCAAVRWGRRSGGLVAEYDYWGQGTQVTVSS
polyreactivity (PSR sort gate): high polyreactivity

QVQLVESGGGLVQAGGSLRLSCAASGYTFRYNTLGGYSQAPGKEREFVAAISSGVGNTYFAVSVKGRFTISRDNAKNTVYLQMNSLKPEDTAVYYCNADYKSSYYWYLWYNYWGQGTQVTVSS
polyreactivity (PSR sort gate): low polyreactivity

QVQLVESGGGLVQAGGSLRLSCAASGYTFSAYAMGWYRQAPGKERELVAVINRSGVRTYYADSVKGRFTISRDNAKNTVYLQMNSLKPEDTAVYYCAAPPRANLFDYWGQGTQVTVSS
polyreactivity (PSR sort gate): high polyreactivity

QVQLVESGGGLVQAGGSLRLSCAASGYTFSFNAMGWYRKAPGKEREMVAAINRGTSTNYADSVKGRFTISRDNAKNTVYLQMNSLKPEDTAVYYCAAGFRRRAGRYDLDYWGQGTQVTVSS
polyreactivity (PSR sort gate): high polyreactivity

QVQLVESGGGLVQAGGSLRLSCAASGYTFSQNAMGWYRPAPGKERELVAGITTRGTTTYYADSVKGRFTISRDNAKNTVYLQMNSLKPEDTAVYYCAADNSYTDNYWGQGTQVTVSS
polyreactivity (PSR sort gate): low polyreactivity

QVQLVESGGGLVQAGGSLRLSCAASGYTFSTYAMGWYRQAPGKERELFAAISYSGGRTRYADSVKGRFTISRDNAKNTVYLQMNSLKPEDTAVYYCAAKSGYGYGYWGQGTQVTVSS
polyreactivity (PSR sort gate): high polyreactivity

QVQLVESGGGLVQAGGSLRLSCAASGYTFSYNAMGWYRQAPGKERELVAAISRSGGSTYYADSVKGRFTISRDNAKNTVYLQMNSLKPEDTAVYYCAAKRVSVPYGYWGQGTQVTVSS
polyreactivity (PSR sort gate): high polyreactivity

QVQLVESGGGLVQAGGSLRLSCAASGYTFTGYAMGGYRQAPGKERECVAGITWRTGRTYYADSVKGRFTISRDNAKNTGYLQMNSLIPEDTAVYYCNKDHQRGYYWSYDYWGQGTQVTVSS
polyreactivity (PSR sort gate): low polyreactivity

QVQLVESGGGLVQAGGSLRLSCAASGYTFTGYAMGGYRQAPGKERELFATITRGGSTYYADSVKGRFTISRDNAKNTVYLPMNSLKPEDTAVYYCATRVQYYVKSTTQYGYGYWGQGTQVTVSS
polyreactivity (PSR sort gate): low polyreactivity

QVQLVESGGGLVQAGGSLRLSCAASGYTFTIYAMGWYRQAPGKERELVAAITGGGGRTYYADSVKGRFTISRDNAKNTVYLQMNSLKPEDTAVYYCAASGPIVGMNYWGQGTQVTVSS
polyreactivity (PSR sort gate): high polyreactivity

QVQLVESGGGLVQAGGSLRLSCAASGYTFTIYAMGWYRQAPGKERELVASISIDGSTYYADSVKGRFTISRDNAKNTVYLQMNSLKREDTAVYYCAADYYYYTPGFDYWGQGTQVTVSS
polyreactivity (PSR sort gate): low polyreactivity

QVQLVESGGGLVQAGGSLRLSCAASGYTFTRNAMGWYRQAPGKERELVATISGSGGGTYYADSVKGRFTISRDNAKNTVYLQMNSLKPEDTAVNYCNARRWFYWQGTARYDYWGQGTQVTVSS
polyreactivity (PSR sort gate): low polyreactivity

QVQLVESGGGLVQAGGSLRLSCAASGYTFVGYAMGWYRQAPGKERELVAAITNGGNTNYADSVKGRFTISRDNAKNTVYLQMNSLKPEDTAVYYCATRHSRRYSWIKYYGIGYDYWGQGTQVTVSS
polyreactivity (PSR sort gate): high polyreactivity

QVQLVESGGGLVQAGGSLRLSCAASGYTFVIYAMGWYRQAPGKERELVAAITTIGGRTYYADSVKGRFTISRDNAKNTVYLQMNSLKPEDTAVYYCAADIRSNRLYDGGYWGQGTHVTVSS
polyreactivity (PSR sort gate): low polyreactivity

QVQLVESGGGLVQAGGSLRLSCAASGYTFVLNAMGWYRQAPGKEREFVAAITWSGGSTYYADSVKGRFTISRDNAKNTVYLQMNSLNPEDTAVYYCAATAHYFGEYDYWGQGTQVTVSS
polyreactivity (PSR sort gate): low polyreactivity

QVQLVESGGGLVQAGGSLRLSCAASGYTFVRYALGWYRQAPGKEMELVAAMSRSGGSTYYADSVKGRFTISRDNAKNTVYLQMNSLKPEDTAVYYCNAYPYSYYDYDYWGQGTQVTVSS
polyreactivity (PSR sort gate): high polyreactivity

QVQLVESGGGLVQAGGSLRLSCAASGYTFVTYAMGWYRQAPGKERELVAAISYTGGSTYYADSEKGRFTISRDNAKNTVYLQMNSLKPEDTAVYYCNTRYSLYTKYAYYDEHDYWGQGTQVTVSS
polyreactivity (PSR sort gate): low polyreactivity

Source: the nanobody polyreactivity screen of Harvey et al. (2022)
